The results in this text go back to patent US20180155451A1 (published 2018).

Experiment [1] concerns the target T1, FcγRIIb, extracellular domain with C-terminal His tag (human, UniProt P31994 43-217).
T1 construct: extracellular domain; soluble receptor used as Biacore analyte; also called 2b; FcgRIIb
T1 sequence (looked up): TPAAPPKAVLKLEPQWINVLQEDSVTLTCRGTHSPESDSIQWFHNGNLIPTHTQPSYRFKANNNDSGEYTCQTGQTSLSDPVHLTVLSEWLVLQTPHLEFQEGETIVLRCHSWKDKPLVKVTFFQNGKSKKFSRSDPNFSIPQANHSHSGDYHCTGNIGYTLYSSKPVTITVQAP
Nature of the experiment: Biacore SPR; binding relative to GpH7-A5/GpH7-B3/GpL16-k0 (=100). For orientation: SPR reads the build-up and loss of mass on a sensor chip optically.

The target in experiment [2] is T2, FcγRIIa R (FcγRIIa, allotype R, Arg at position 131), extracellular domain with C-terminal His tag (human, UniProt P12318 34-217).
T2 construct: extracellular domain; soluble receptor used as Biacore analyte; also called 2aR; FcgRIIa R
T2 sequence (looked up): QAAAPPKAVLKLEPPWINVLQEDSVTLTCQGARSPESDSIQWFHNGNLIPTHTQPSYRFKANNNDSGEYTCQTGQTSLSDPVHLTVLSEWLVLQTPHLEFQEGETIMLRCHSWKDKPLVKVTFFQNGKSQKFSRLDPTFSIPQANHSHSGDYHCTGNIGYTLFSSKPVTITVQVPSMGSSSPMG
The experiment is described as above.

Experiment [3] deals with T2, FcγRIIa R (FcγRIIa, allotype R, Arg at …). Nature of the experiment: Biacore SPR; He/Con_2aR divided by He/Con_2b (FcγRIIb). Here is the method: The heterodimerized antibodies He Abs in which one of the H chains was introduced with an alteration were assayed for their binding activities to each activating FcγR and inhibitory FcγR according to the method described in Example 4. […] The activating FcγRs in FIGS. 26, 27, 28, and 29 are FcγRIa, FcγRIIa (R), FcγRIIa (H), and FcγRIIIa, respectively.
Analysis of interaction between objective antibody and the FcγR was carried out using Biacore T100 (GE Healthcare). HBS-EP+ (GE Healthcare) was used as the running buffer, and the measurement temperature was set to 25° C. Chips produced by immobilizing the antigen peptide by the amine coupling method to a Series S Sencor Chip CM5 (GE Healthcare), or alternatively, chips produced by allowing preliminarily biotinylated antigen peptides to interact with and immobilize onto a Series S Sensor Chip SA (certified) (GE Healthcare) were used. Antibodies of interest were captured onto an antigen peptide-immobilized chip, and allowed to interact to each FcγR diluted with running buffer. To regenerate and repeatedly use the chip, the antibodies captured on the chip were washed off by reacting 10 mM glycine-HCl, pH 1.5.

B1: heterodimerized antibody GpH7-A5/GpH7-B3 variant A327_07I/GpL16-k0 (antibody, human IgG1, kappa)
heavy 1: not shown
heavy 2: not shown
light: DIVMTQSPLSLPVTPGEPASISCQASESLVHSNRNTYLHWYLQKPGQSPQLLIYKVSNRFSGVPDRFSGSGSGTDFTLKISRVEAEDVGVYYCSQNTHVPPTFGQGTKVEIERTVAAPSVFIFPPSDEQLKSGTASVVCLLNNFYPREAKVQWKVDNALQSGNSQESVTEQDSKDSTYSLSSTLTLSKADYEKHKVYACEVTHQGLSSPVTKSFNRGEC
notes: He Ab: anti-glypican-3 IgG1, alteration in one H chain only; also called He Ab
For the molecule B1, in experiment [1], the “He/Con_2b (IIb binding)” value was 127 % of control. In addition, the “He/Con_2aR (IIaR binding)” value in experiment [2] was 98 % of control. For the same molecule, the “IIaR/IIb (He_2aR/2b)” value in experiment [3] is 0.77.

B2: heterodimerized antibody GpH7-A5/GpH7-B3 variant A327_09D/GpL16-k0 (antibody, human IgG1, kappa)
heavy 1: not shown
heavy 2: not shown
light: B1 light
notes: as for B1
B2: the “He/Con_2b (IIb binding)” value in experiment [1] is 172 % of control. Further, in experiment [2], the “He/Con_2aR (IIaR binding)” value was 124 % of control. In addition, in experiment [3], the “IIaR/IIb (He_2aR/2b)” value turned out to be 0.72.

B3: heterodimerized antibody GpH7-A5/GpH7-B3 variant D270_05P/GpL16-k0 (antibody, human IgG1, kappa)
heavy 1: not shown
heavy 2: not shown
light: B1 light
notes: as for B1
B3: the “He/Con_2b (IIb binding)” value in experiment [1] is 13.9 % of control. Also, the “He/Con_2aR (IIaR binding)” value in experiment [2] was 7.5 % of control. The “IIaR/IIb (He_2aR/2b)” value in experiment [3] is 0.54.

B4: heterodimerized antibody GpH7-A5/GpH7-B3 variant L328_10E/GpL16-k0 (antibody, human IgG1, kappa)
heavy 1: not shown
heavy 2: not shown
light: B1 light
notes: as for B1
On to B4, for which, in experiment [1], the “He/Con_2b (IIb binding)” value was 172 % of control. Besides, the “He/Con_2aR (IIaR binding)” value in experiment [2] was 105 % of control. In experiment [3], the “IIaR/IIb (He_2aR/2b)” value is 0.61.

B5: heterodimerized antibody GpH7-A5/GpH7-B3 variant L328_09D/GpL16-k0 (antibody, human IgG1, kappa)
heavy 1: not shown
heavy 2: not shown
light: B1 light
notes: as for B1
In the case of B5, in experiment [1], the “He/Con_2b (IIb binding)” value was 199 % of control. Also, the “He/Con_2aR (IIaR binding)” value in experiment [2] is 119 % of control. Besides, the “IIaR/IIb (He_2aR/2b)” value in experiment [3] was found to be 0.6.

B6: heterodimerized antibody GpH7-A5/GpH7-B3 variant P238_09D/GpL16-k0 (antibody, human IgG1, kappa)
heavy 1: not shown
heavy 2: not shown
light: B1 light
notes: as for B1
For the molecule B6, in experiment [1], the “He/Con_2b (IIb binding)” value is 221 % of control. In addition, the “He/Con_2aR (IIaR binding)” value in experiment [2] is 148 % of control. For the same molecule, in experiment [3], the “IIaR/IIb (He_2aR/2b)” value was found to be 0.67.

B7: heterodimerized antibody GpH7-A5/GpH7-B3 variant H268_13S/GpL16-k0 (antibody, human IgG1, kappa)
heavy 1: not shown
heavy 2: not shown
light: B1 light
notes: as for B1
For the molecule B7, the “He/Con_2b (IIb binding)” value in experiment [1] is 160 % of control. In addition, the “He/Con_2aR (IIaR binding)” value in experiment [2] is 127 % of control. The “IIaR/IIb (He_2aR/2b)” value in experiment [3] turned out to be 0.8.

B8: heterodimerized antibody GpH7-A5/GpH7-B3 variant K326_09D/GpL16-k0 (antibody, human IgG1, kappa)
heavy 1: not shown
heavy 2: not shown
light: B1 light
notes: as for B1
Take B8: the “He/Con_2b (IIb binding)” value in experiment [1] was 193 % of control. Besides, the “He/Con_2aR (IIaR binding)” value in experiment [2] was 148 % of control. Moreover, in experiment [3], the “IIaR/IIb (He_2aR/2b)” value was determined as 0.77.

B9: heterodimerized antibody GpH7-A5/GpH7-B3 variant N325_20W/GpL16-k0 (antibody, human IgG1, kappa)
heavy 1: not shown
heavy 2: not shown
light: B1 light
notes: as for B1
Take B9: the “He/Con_2b (IIb binding)” value in experiment [1] was 169 % of control. Besides, the “He/Con_2aR (IIaR binding)” value in experiment [2] was 134 % of control. For the same molecule, the “IIaR/IIb (He_2aR/2b)” value in experiment [3] is 0.79.

B10: heterodimerized antibody GpH7-A5/GpH7-B3 variant P238_04F/GpL16-k0 (antibody, human IgG1, kappa)
heavy 1: not shown
heavy 2: not shown
light: B1 light
notes: as for B1
Regarding B10, the “He/Con_2b (IIb binding)” value in experiment [1] was 312 % of control. The “He/Con_2aR (IIaR binding)” value in experiment [2] is 174 % of control. In experiment [3], the “IIaR/IIb (He_2aR/2b)” value came out at 0.56.

B11: heterodimerized antibody GpH7-A5/GpH7-B3 variant H268_02A/GpL16-k0 (antibody, human IgG1, kappa)
heavy 1: not shown
heavy 2: not shown
light: B1 light
notes: as for B1
Turning to B11, the “He/Con_2b (IIb binding)” value in experiment [1] is 167 % of control. Moreover, in experiment [2], the “He/Con_2aR (IIaR binding)” value was 133 % of control. Besides, the “IIaR/IIb (He_2aR/2b)” value in experiment [3] was 0.8.

B12: heterodimerized antibody GpH7-A5/GpH7-B3 variant P238_08L/GpL16-k0 (antibody, human IgG1, kappa)
heavy 1: not shown
heavy 2: not shown
light: B1 light
notes: as for B1
Regarding B12, the “He/Con_2b (IIb binding)” value in experiment [1] was 204 % of control. Moreover, the “He/Con_2aR (IIaR binding)” value in experiment [2] was 140 % of control. Besides, the “IIaR/IIb (He_2aR/2b)” value in experiment [3] amounted to 0.68.

B13: heterodimerized antibody GpH7-A5/GpH7-B3 variant K326_10E/GpL16-k0 (antibody, human IgG1, kappa)
heavy 1: not shown
heavy 2: not shown
light: B1 light
notes: as for B1
In the case of B13, the “He/Con_2b (IIb binding)” value in experiment [1] is 200 % of control. For the same molecule, in experiment [2], the “He/Con_2aR (IIaR binding)” value is 148 % of control. In experiment [3], the “IIaR/IIb (He_2aR/2b)” value was 0.74.

B14: heterodimerized antibody GpH7-A5/GpH7-B3 variant K326_08L/GpL16-k0 (antibody, human IgG1, kappa)
heavy 1: not shown
heavy 2: not shown
light: B1 light
notes: as for B1
Take B14: the “He/Con_2b (IIb binding)” value in experiment [1] is 177 % of control. In addition, the “He/Con_2aR (IIaR binding)” value in experiment [2] is 137 % of control. Moreover, the “IIaR/IIb (He_2aR/2b)” value in experiment [3] turned out to be 0.77.
